From patent publication US20220125919A1 come the findings set out here.

The target of assay [1] is EBV LMP2A epitope … presented by HLA-A*0201 (human). Nature of the assay: cell-based or functional assay.
Assay [2] has as its target HCMV pp65 epitope … presented by HLA-A*0201 (human). Nature of the assay: cell-based or functional assay.

With “TCR that recognizes peptide … presented by A*0201 (PDB #3REV)”, in assay [1], the luciferase induction relative to uninfected controls, short cassette design 9AA is 12; the luciferase induction relative to uninfected controls, short cassette design 17AA was found to be 10.3; the luciferase induction relative to uninfected controls, short cassette design 25AA was 14.6; the luciferase induction relative to uninfected controls, short cassette design DPP came to 1.1. Further, the luciferase induction relative to uninfected controls, short cassette design RR in assay [1] came out at 8.5.
For “TCR that recognizes peptide … presented by A*0201 (PDB #5D2N)”, in assay [2], the luciferase induction relative to uninfected controls, short cassette design 9AA was 33.6; the luciferase induction relative to uninfected controls, short cassette design 17AA was 42.8; the luciferase induction relative to uninfected controls, short cassette design 25AA worked out at 42.3; the luciferase induction relative to uninfected controls, short cassette design DPP is 0.9. In assay [2], this substance displayed a luciferase induction relative to uninfected controls, short cassette design RR of 21.7; a luciferase induction, in vitro T cell activation assay, short cassette design AAY of 24.5; a luciferase induction, in vitro T cell activation assay, targeting-sequence short cassette design A of 32.5; a luciferase induction, in vitro T cell activation assay, targeting-sequence short cassette design B of 31.8. In assay [2], the luciferase induction, in vitro T cell activation assay, targeting-sequence short cassette design C was 29.1; the luciferase induction, in vitro T cell activation assay, targeting-sequence short cassette design D is 29.1; the luciferase induction, in vitro T cell activation assay, targeting-sequence short cassette design E was 28.4; the luciferase induction, in vitro T cell activation assay, targeting-sequence short cassette design F was found to be 20.4. In assay [2], the luciferase induction, in vitro T cell activation assay, targeting-sequence short cassette design G came out at 35; the luciferase induction, in vitro T cell activation assay, targeting-sequence short cassette design H amounted to 30.3; the luciferase induction, in vitro T cell activation assay, targeting-sequence short cassette design I came to 22.5; the luciferase induction, in vitro T cell activation assay, targeting-sequence short cassette design J worked out at 38.1.
